Measured values taken from patent US20100095387A1, “METHODS AND REAGENTS FOR SCREENING NEW DRUGS AND FOR TREATING ION PUMP ASSOCIATED DISORDERS AND DISEASES” (priority 2005, published 2010).

Key:
agrin-deficient neurons = assay: Rescue of glutamate-induced Fos expression in agrin-deficient neuron cultures; type: cell-based, mouse
Method: FIG. 6 is a graph showing that the 20-kD COOH-terminal region of agrin is the minimal fragment sufficient to rescue an agrin-deficient phenotype. (A) 10-d-old wild-type (filled bars) or agrin-deficient (open bars) cultures were grown for 2 d in media supplemented to 5 nM with the indicated agrin fragment. Cultures were challenged for 5 min with 100 μM glutamate as described previously (Hilgenberg et al., 2002), and the levels of Fos expression were determined. Data were normalized to levels of glutamate-induced Fos expression in mocktreated wild-type cultures. Compared with mock, glutamate responses of homozygous agrin-deficient neurons were rescued to near wildtype levels by either the long C-Ag95z8/0 or short C-Ag20z8/0 fragments (***, P≦0.0005; **, P≦0.002; *, P≦0.02; paired t test). (B) To test the ability of C-Ag15 to antagonize agrin action, 10-d-old agrin-deficient neurons were maintained for 2 d in the presence of 5 nM C-Ag95z0 alone or in combination with 10 nM C-Ag15, and neuronal responses to glutamate were determined as above. […]
Fos expression in cortical cultures was measured by in situ enzyme-linked immunoassay (Hilgenberg et al., 1999). […] The level of Fos expression was determined by monitoring conversion of p-nitrophenyl phosphate to a soluble yellow reaction product at 405 nm.

hippocampal neurons = assay: Fos expression in hippocampal neurons; type: cell-based, mouse; conditions: 1 nM C-Ag15 with 50 pM C-Ag95z8
Method: Mouse cortical cultures were prepared from newborn or 1-d-old ICR strain mice (Harlan) as described previously (Hilgenberg et al., 1999). For the first 24 h after plating, cells were maintained in neural basal medium (NBM) plus B27 supplements (Invitrogen), and in nonneuronal cell-conditioned NBM (cNBM) plus B27 thereafter, at 37° C. in humidified 5% CO2 atmosphere. To further reduce proliferation of nonneuronal cells, cultures on glass coverslips used for histology were treated with 5 μM 5-fluoro-2-deoxyuridine (Sigma-Aldrich) 3-4 d after plating. Hippocampal and cerebellar cultures were prepared in a similar manner. Experiments were performed on 10-14-d-old cultures. Agrin-deficient neuron cultures were prepared from cortices of embryonic d 18-19 fetuses resulting from matings between mice heterozygous for a mutation in the agrin gene (Gautam et al., 1996). Cultures were prepared and genotyped as described previously (Li et al., 1999), and were maintained as above.
Fos expression in cortical cultures was measured by in situ enzyme-linked immunoassay (Hilgenberg et al., 1999). In brief, 11-14-d-old neuronal cultures were treated for 10 min with agrin or other agent diluted in NBM or PBS, then washed in cNBM and returned to the incubator for 2 h. […] The level of Fos expression was determined by monitoring conversion of p-nitrophenyl phosphate to a soluble yellow reaction product at 405 nm. […]

[1] = molecular target: T1, α3 subunit of the Na+/K+-ATPase (Mus musculus, UniProt Q6PIC6); assay: Chemical cross-linking of agrin fragments to cortical neurons, immunoprecipitation and immunoblot; type: binding
T1 construct: a 110 kDa band characteristic of the native α3Na+/K+-ATPase; endogenous in cells; host or cells: primary mouse cortical neurons, 10-16 days in culture
Method: Membrane impermeant chemical cross-linking agents BS^3 and DMA were used to stabilize the bond between agrin and its binding sites on cell surface membranes. Cultured neurons were washed briefly in PBS containing 10 mM EDTA followed by preincubation with one or more agrin fragment in PBS^2+ for 30 minutes at room temperature and then cooled on ice prior to addition of a 10× solution of cross-linking agent to a final concentration of 0.1 mM. The cross-linking reaction was allowed to proceed for 30 minutes after which any unreacted cross-linker was quenched and removed by washing with ice cold PBS^2+ containing 50 mM ethanolamine. For immunoblot analysis, cells were scraped into ice-cold TI buffer (20 mM Tris, pH 7.4; 10 mM EDTA; protease inhibitors (Sigma, P8340)) then Dounce homogenized and membrane fraction recovered by centrifugation. For the immunoprecipitation studies, cells were scraped and homogenized in TI buffer containing 150 mM NaCl and 0.5% Triton X-100. Cell extracts were cleared by centrifugation and aliquots of the detergent soluble fraction incubated with the appropriate antibody at 4° C. overnight. Antigen-antibody complexes were precipitated with either protein A or protein G and resuspended in SDS-PAGE sample buffer for immunoblot analysis.
Ligand induced phosphorylation is a common first step in membrane receptor activation and inhibition of tyrosine kinase activity blocks agrin signalling in central nervous system neurons. To determine if agrin induced phosphorylation of the putative agrin receptor, membranes from neurons cross-linked to C-Ag208 or C-Ag15, alone or in combination, were dissolved, in a detergent-containing buffer and aliquots immunoprecipitated with RAg1 or the phosphotyrosine antibody mAb4G10 (Upstate). Immunoprecipitated proteins were analyzed by immunoblotting with a monoclonal antibody (9E10.2, Invitrogen) against the COON-terminal myc tag on the agrin fragments.
To confirm the results of the mass spectrometry the ability of different α-subunit antibodies to recognize the putative agrin-Na^+/K^+-ATPase complex was tested. […]

B1: C-Ag15: 15-kD COOH-terminal fragment of agrin created by deleting 37 amino acids from the NH2 terminus of C-Ag20, SEQ. ID NO. 3 (protein)
chain: MDPWIGKAAERADYMALAIVDGHLQLSYDLASQPVVLRSTVKVNTNRWLRVRAHREHREGSLQVGNEAPVTSSSPLGATQLDTDGALWLGGLQKLPVGQPLPKAYGTGFVGCLRNVVGHRQLHLLEDAVTKPELRPCPTLNSKLGPEQKLISEEDLNSAVDHHHHHH
modifications: Synthetically produced sequence
rescue by C-Ag95z0 blocked (agrin-deficient neurons; 10 nM C-Ag15 with 5 nM C-Ag95z0 in growth medium): 54%
effect on glutamate-induced expression of c-fos (agrin-deficient neurons; up to 10 nM, wild-type or heterozygous agrin-deficient neurons): no effect
effect on C-Ag95z8-induced Fos expression (hippocampal neurons): completely inhibited
effect on C-Ag208 binding and phosphorylation ([1]; cross-linked in combination with C-Ag208): blocking both binding and phosphorylation
tyrosine phosphorylation of the cross-linked complex ([1]; immunoprecipitation with phosphotyrosine antibody mAb4G10): did not induce phosphorylation
